Measurements taken from PMC8361300.

Experiments:
[1] = target: Nucleobindin-2 from Gallus gallus (ggNucb2) (Gallus gallus); assay: AUC; sedimentation velocity, 50,000 rpm, 20 °C, buffer C (20 mM Tris-HCl, 150 mM NaCl, pH 7.5) with 100 µM ZnCl2 (also 200 and 300 µM); protein 0.5, 0.75 and 1.0 mg/ml; c(s) model
[2] = target: Nucleobindin-2 from Gallus gallus (ggNucb2) (Gallus gallus); assay: SAXS; protein 3.5 mg/ml with 5 mM EDTA, 10 mM Ca2+, 10 mM Mg2+ or 100 µM Zn2+; molecular mass from I(0) against BSA
[3] = target: Nucleobindin-2 from Gallus gallus (Gallus gallus); assay: ITC; Ca2+ (4000 µM) titrated into ggNucb2 (50 µM), 25 °C, 20 mM HEPES, 150 mM NaCl, pH 7.5; broad range fit to the AA BB model with ligand-mediated dimerization ((A + A) + B + B to (AA)BB) in SEDPHAT; constant of the step monomers to dimer
[4] = target: Nucleobindin-2 from Homo sapiens (hsNucb2) (Homo sapiens); assay: AUC; sedimentation velocity, 50,000 rpm, 20 °C, buffer C (20 mM Tris-HCl, 150 mM NaCl, pH 7.5) with 5 mM EDTA (apo); protein 0.5, 0.75 and 1.0 mg/ml; c(s) model
[5] = target: Nucleobindin-2 from Homo sapiens (hsNucb2) (Homo sapiens); assay: SAXS; protein 3.5 mg/ml with 5 mM EDTA, 10 mM Ca2+, 10 mM Mg2+ or 100 µM Zn2+; molecular mass from I(0) against BSA

For “Nucleobindin-2 from Gallus gallus (ggNucb2) (natural protein)”, the stoichiometry N [1] was greater than 2 and the stoichiometry N [2] was 2.

“Nucleobindin-2 from Gallus gallus (natural protein)” showed a Kd [3] of 16 nM.

Substance “Nucleobindin-2 from Homo sapiens (hsNucb2) (natural protein)” has a stoichiometry N [4] of 2 and a stoichiometry N [5] of 2.
